From paper PMC7913761
Substitutions are numbered along the chain they refer to.

T1: IRF4 DBD L116R (human, UniProt Q15306 21-130, L116R)
T1 sequence: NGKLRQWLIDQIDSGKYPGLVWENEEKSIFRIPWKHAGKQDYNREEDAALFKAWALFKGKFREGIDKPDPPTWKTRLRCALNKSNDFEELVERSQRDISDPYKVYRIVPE

T2: IRF4 DBD WT (human, UniProt Q15306 21-130)
T2 sequence: T1 sequence with R96L

T3: IRF4 DBD K59A (human, UniProt Q15306 21-130, K59A)
T3 sequence: T1 sequence with K39A, R96L

B1: AICE1 (dsDNA)
DNA 1: TAGTGCAGAAATGAGTCAGAGA
DNA 2: TCTCTGACTCATTTCTGCACTA
B2: AICE2 (dsDNA)
DNA 1: GAGGTTTCGGGATGACTAATACT
DNA 2: AGTATTAGTCATCCCGAAACCTC
B3: ISRE (SPR) (dsDNA)
DNA 1: CAACTGAAACCGAGAAAGC
DNA 2: GCTTTCTCGGTTTCAGTTG
B4: EICE1 (dsDNA)
DNA 1: TAAAAGGAAGTGAAACCAAG
DNA 2: CTTGGTTTCACTTCCTTTTA

How the values were obtained:
Test in all cases: SPR
[1] = target: T1, IRF4 DBD L116R
[2] = target: T2, IRF4 DBD WT
[3] = target: T3, IRF4 DBD K59A

| Binder | Kd [1] | Kd [2] | Kd [3] |
| --- | --- | --- | --- |
| B1 | 2.21 ± 0.03 µM | 2.8 ± 0.48 µM | – |
| B2 | – | 1.38 ± 0.51 µM | – |
| B3 | 0.06 ± 0.04 µM | 0.25 ± 0.15 µM | 0.66 ± 0.1 µM |
| B4 | 0.06 ± 0.06 µM | 0.26 ± 0.07 µM | – |
